Results taken from patent US20040253250A1 (XCYTE THERAPIES, published 2004).
Bridge positions count the residues as written; N and C are the ends. Ends that are not written are not given here.

Columns and labels:
anti-CD3 mAb G19-4 = assay: ELISA: immobilized G19-4 captures titrated CD3-Ig; detection with anti-human IgG hinge-CH2-CH3 HRP conjugate
[1] = target: CD3εδ-Ig heterodimer (human) (UniProt P07766); assay: BIACORE (SPR); Affinity (nM)
[2] = target: CD3εγ-Ig heterodimer (human) (UniProt P07766); assay: ELISA, anti-CD3 mAb immobilized, fusion protein titrated
[3] = target: CD3εδ-Ig heterodimer (human) (UniProt P07766); assay: as above
CD3γ-Ig (human) = CD3γ-Ig (human) (UniProt P09693); assay: as above
CD3ε-Ig (human) = CD3ε-Ig (human) (UniProt P07766); assay: as above
CD28huIg = target: T1, CD28huIg (UniProt P10747 19-152); assay: BIACORE (SPR), fusion protein immobilized, peptide in solution
T1 construct: Immobilized on the BIACORE chip; construct not described; also called CD28Ig; CD28-Ig; not shown: human Ig part (huIg), not further described
Protocol: BIACORE uses surface plasmon resonance (SPR) which occurs when surface plasmon waves are excited at a metal/liquid interface. Light is directed at, and reflected due to bimolecular interactions between analyte (in solution) and ligand (immobilized). CD3εδhuIg, CD3εεhuIg and CD28huIg were covalently immobilized on a carboxymethy dextran chip using EDC/NHS chemistry followed by blocking with ethanol amine. Peptides were dissolved in HBS buffer at pH 7.2 with or without 1% DMSO, and were allowed to pass over these fusion protein-immobilized surfaces. Non-specific binding was substrated by passing these peptides over a controlled surface prepared by immobilizing EDC/NHS alone followed by ethanolamine.

[4] = target: CD3εδ-Ig heterodimer (human) (UniProt P07766); assay: BIACORE (SPR), fusion protein immobilized, peptide in solution; printed as Binding Affinity

CD3εδ-Ig heterodimer (human), sequence (P07766 23-126, stated change not applied, chain 1 of 2): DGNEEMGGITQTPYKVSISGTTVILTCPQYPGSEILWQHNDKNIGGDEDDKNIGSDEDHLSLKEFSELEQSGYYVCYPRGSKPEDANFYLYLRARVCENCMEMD
CD3εδ-Ig heterodimer (human), sequence (P04234 22-105, stated change not applied, chain 2 of 2, further chain): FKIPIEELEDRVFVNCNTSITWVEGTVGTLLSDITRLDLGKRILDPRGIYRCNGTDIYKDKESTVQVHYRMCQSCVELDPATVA
CD3ε-Ig (human), sequence (P07766 23-126): as the sequence (P07766 23-126, stated change not applied, chain 1 of 2) above
CD3εγ-Ig heterodimer (human), sequence (P07766 23-126, chain 1 of 2): as the sequence (P07766 23-126, stated change not applied, chain 1 of 2) above
CD3εγ-Ig heterodimer (human), sequence (P09693 23-116, chain 2 of 2, further chain): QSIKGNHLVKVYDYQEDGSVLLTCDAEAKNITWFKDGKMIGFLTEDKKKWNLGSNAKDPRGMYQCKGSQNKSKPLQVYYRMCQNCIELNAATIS
CD3γ-Ig (human), sequence (P09693 23-116): as the sequence (P09693 23-116, chain 2 of 2, further chain) above

With “CD3εγ-Ig heterodimer (from UniProt P07766 23-126; P09693 23-116) (Fc fusion)” the EC50 (read off the curve) (anti-CD3 mAb G19-4) was 800 ng/mL.

“CD3εδ-Ig heterodimer (from UniProt P07766 23-126; P04234 22-105) (Fc fusion)” gave an EC50 (read off the curve) (anti-CD3 mAb G19-4) of 100 ng/mL.

In the case of anti-CD3 mAb 64.1 (antibody), the Kd [1] is reported as 7.58 nM.

For anti-CD3 mAb BC3 (antibody), the Kd [1] was 5.7 nM.

With anti-CD3 mAb G19-4 (antibody) the Kd [1] was 1.28 nM, the saturating concentration of the fusion protein [2] was 20 µg/mL and the saturating concentration of the fusion protein [3] was 4 µg/mL. For the same molecule, the saturating concentration of the fusion protein (CD3γ-Ig (human)) was > 100 µg/mL and the saturating concentration of the fusion protein (CD3ε-Ig (human)) was > 100 µg/mL.

YCYDYDGCY (disulfide 2-8 (inferred)) [YCYDYDGCY (SEQ ID NO:75)]: no binding (CD28huIg).

YCYDYDFCY (disulfide 2-8 (inferred)) [YCYDYDFCY (SEQ ID NO:77)]: no binding (CD28huIg).

YCYDYDYCY (disulfide 2-8 (inferred)) [YCYDYDYCY (SEQ ID NO:76)]: no binding (CD28huIg).

YCYDDHTCY (disulfide 2-8 (inferred)) [YCYDDHTCY (SEQ ID NO:78)]: no binding (CD28huIg).

YCYDDHQCY (disulfide 2-8 (inferred)) [YCYDDHQCY (SEQ ID NO:79)]: no binding (CD28huIg).

In the case of YCFDWKNCY (disulfide 2-8 (inferred)) [… (SEQ ID NO:80)], the Kd [4] is reported as 0.5 µM.

YCFDWKNCY (disulfide 2-8 (inferred)) [YCFDWKNCY (SEQ ID NO:80)]: no binding (CD28huIg).

YCYDYDGCY (disulfide 2-8 (inferred)) [… (SEQ ID NO:75)] was tested, and the Kd [4] was 10 µM.
